The values that follow come from patent publication US20090291890A1 (published 2009).

Values joined by “and” are separate entries in the source; they are usually repeats but may differ in a detail not shown here. Identical values can stand only once.

Assay [1] concerns the target Factor X (Homo sapiens (Human)) (UniProt P00742).
Assay [2] addresses T1, Mesyl-dFPR-ACC.
T1 sequence (peptide, N-terminal mesyl; D-Phe at position 1 (dF); C-terminal ACC fluorophore): FPR

For the substance T128N/P129A/Q286R/H373F-FVIIa (enzyme), in assay [1], the kcat/KM (M^-1s^-1), TF-dependent assay was 6.91e+07 M⁻¹ s⁻¹ and the kcat/KM, TF-independent assay came out at 6.6 M⁻¹ s⁻¹. Besides, the Activity (µmol/sec/µmol), specific activity for mesyl-dFPR-ACC (µmol/sec/µmol) in assay [2] is 2.31.
Turning to “Gla swap FIX/T239V/Q286R/M298Q-FVIIa (enzyme)”, the kcat/KM (M^-1s^-1), TF-dependent assay in assay [1] is 2.53e+08 M⁻¹ s⁻¹ and 1.79e+08 M⁻¹ s⁻¹. In addition, the Activity (µmol/sec/µmol), specific activity for mesyl-dFPR-ACC (µmol/sec/µmol) in assay [2] turned out to be 1.13.
For the substance Gla swap FIX-FVIIa (enzyme), in assay [1], the kcat/KM (M^-1s^-1), TF-dependent assay was determined as 5.38e+07 M⁻¹ s⁻¹ and the kcat/KM, TF-independent assay amounted to 41.3 M⁻¹ s⁻¹. Moreover, the Activity (µmol/sec/µmol), specific activity for mesyl-dFPR-ACC (µmol/sec/µmol) in assay [2] was determined as 1.63.
The like results for “S52A/S60A/V158D/E296V/M298Q-FVIIa (enzyme)” were, in that order, 2e+08 M⁻¹ s⁻¹, 1760 M⁻¹ s⁻¹ and 2.56.
In the case of “Gla swap FIX/S222A/Q286R/H373F-FVIIa (enzyme)”, in assay [1], the kcat/KM (M^-1s^-1), TF-dependent assay was 1.22e+08 M⁻¹ s⁻¹ and the kcat/KM, TF-independent assay came out at 81.2 M⁻¹ s⁻¹. Besides, in assay [2], the Activity (µmol/sec/µmol), specific activity for mesyl-dFPR-ACC (µmol/sec/µmol) amounted to 1.37.
The like results for “S52A/S60A/Q286R/M298Q/H373F-FVIIa (enzyme)” were, in that order, 1.77e+08 M⁻¹ s⁻¹, 63.3 M⁻¹ s⁻¹ and 5.02.
Taken in the same sequence, the figures for “T128N/P129A/Q286R/M298Q/H373F-FVIIa (enzyme)” were 1.33e+08 M⁻¹ s⁻¹, 30.7 M⁻¹ s⁻¹ and 2.83.
As for “T128N/P129A/A175S/Q286R/M298Q-FVIIa (enzyme)”, the kcat/KM, TF-dependent assay in assay [1] worked out at 7.21e+07 M⁻¹ s⁻¹. The substance also gave an Activity (µmol/sec/µmol), specific activity for mesyl-dFPR-ACC (µmol/sec/µmol) in assay [2] of 2.02.
The like results for “Gla swap FIX/A122N/G124S/A175S/S222A/Q286R-FVIIa (enzyme)” were, in that order, 4.13e+07 M⁻¹ s⁻¹ and 0.89.
The like results for “T128N/P129A/A175S/Q286R/M298Q/H373F-FVIIa (enzyme)” were, in that order, 5.72e+07 M⁻¹ s⁻¹ and 2.78.
Take S52A/S60A-FVIIa (enzyme): in assay [1], the kcat/KM (M^-1s^-1), TF-dependent assay is 3.56e+07 M⁻¹ s⁻¹ and the kcat/KM, TF-independent assay is 3.8 M⁻¹ s⁻¹. This substance registered an Activity (µmol/sec/µmol), specific activity for mesyl-dFPR-ACC (µmol/sec/µmol) in assay [2] of 1.95.
For the substance “T128N/P129A/A175S/S222A/H257A/Q286R/M298Q-FVIIa (enzyme)”, the kcat/KM, TF-dependent assay in assay [1] turned out to be 6.89e+07 M⁻¹ s⁻¹. This substance registered an Activity (µmol/sec/µmol), specific activity for mesyl-dFPR-ACC (µmol/sec/µmol) in assay [2] of 21.8.
As for “{Gla swap FIX/M19K}/Q286R/M298Q-FVIIa (enzyme)”, in assay [1], the kcat/KM (M^-1s^-1), TF-dependent assay stood at 1.41e+08 M⁻¹ s⁻¹ and the kcat/KM, TF-independent assay amounted to 512 M⁻¹ s⁻¹. The same substance came in with an Activity (µmol/sec/µmol), specific activity for mesyl-dFPR-ACC (µmol/sec/µmol) in assay [2] of 1.26.
Take A122N/G124S/A175S/Q366V-FVIIa (enzyme): in assay [1], the kcat/KM (M^-1s^-1), TF-dependent assay came out at 3.02e+07 M⁻¹ s⁻¹ and the kcat/KM, TF-independent assay was 3 M⁻¹ s⁻¹. Besides, the Activity (µmol/sec/µmol), specific activity for mesyl-dFPR-ACC (µmol/sec/µmol) in assay [2] is 2.34.
Turning to “T128N/P129A/S222A/H257A/Q286R/M298Q-FVIIa (enzyme)”, the kcat/KM (M^-1s^-1), TF-dependent assay in assay [1] is 1.55e+08 M⁻¹ s⁻¹ and 1.73e+08 M⁻¹ s⁻¹. Besides, the Activity (µmol/sec/µmol), specific activity for mesyl-dFPR-ACC (µmol/sec/µmol) in assay [2] was found to be 1.66.
Consider “{Gla swap FIX/K43I}/Q286R/M298Q-FVIIa (enzyme)”, for which, in assay [1], the kcat/KM (M^-1s^-1), TF-dependent assay was 2.73e+08 M⁻¹ s⁻¹ and 2.91e+08 M⁻¹ s⁻¹; the kcat/KM, TF-independent assay is 902 M⁻¹ s⁻¹ and 794 M⁻¹ s⁻¹. Further, the Activity (µmol/sec/µmol), specific activity for mesyl-dFPR-ACC (µmol/sec/µmol) in assay [2] came to 1.2.
As to T128N/P129A/A175S/Q286R-FVIIa (enzyme), in assay [1], the kcat/KM (M^-1s^-1), TF-dependent assay was 3.33e+07 M⁻¹ s⁻¹ and the kcat/KM, TF-independent assay was 3.3 M⁻¹ s⁻¹. This substance also had an Activity (µmol/sec/µmol), specific activity for mesyl-dFPR-ACC (µmol/sec/µmol) in assay [2] of 1.88.
As to A122N/G124S/A175S/S222A-FVIIa (enzyme), in assay [1], the kcat/KM (M^-1s^-1), TF-dependent assay came to 2.08e+07 M⁻¹ s⁻¹. Also, the Activity (µmol/sec/µmol), specific activity for mesyl-dFPR-ACC (µmol/sec/µmol) in assay [2] turned out to be 2.68.
As to Q286R-FVIIa (enzyme), in assay [1], the kcat/KM (M^-1s^-1), TF-dependent assay is 8.06e+07 M⁻¹ s⁻¹ and the kcat/KM, TF-independent assay worked out at 10.3 M⁻¹ s⁻¹. Besides, in assay [2], the Activity (µmol/sec/µmol), specific activity for mesyl-dFPR-ACC (µmol/sec/µmol) worked out at 1.24.
